According to patent publication US20240117018A1:

Key:
Experiment in all cases: cell-based or functional assay
[1] = target: Env of HIV-1 pseudovirus CNE20 (HIV-1)
[2] = target: Env of HIV-1 pseudovirus Q769.d22 (HIV-1)
[3] = target: Env of HIV-1 pseudovirus CNE58 (HIV-1)
[4] = target: Env of HIV-1 pseudovirus 0260.v5.c36 (HIV-1)
[5] = target: Env of HIV-1 pseudovirus Du422.1 (HIV-1)
[6] = target: Env of HIV-1 pseudovirus SC05_8C11_2344 (HIV-1)
[7] = target: Env of HIV-1 pseudovirus HIV-001428-2.42 (HIV-1)
[8] = target: Env of HIV-1 pseudovirus Q259.d2.17 (HIV-1)
[9] = target: Env of HIV-1 pseudovirus 6535.3 (HIV-1)
[10] = target: Env of HIV-1 pseudovirus CNE30 (HIV-1)
[11] = target: Env of HIV-1 pseudovirus Ce2010_F5 (HIV-1)
[12] = target: Env of HIV-1 pseudovirus 249M B10 (HIV-1)
[13] = target: HIV-1 Env of pseudovirus C2101.c01 (HIV-1)
[14] = target: Env of HIV-1 pseudovirus ZM214M.PL15 (HIV-1)
[15] = target: HIV-1 Env of pseudovirus Ce0682_E4 (HIV-1)
[16] = target: HIV-1 Env of pseudovirus BF1266.431a (HIV-1)
[17] = target: HIV-1 Env of pseudovirus REJO4541.67 (HIV-1)
[18] = target: HIV-1 Env of pseudovirus 3415.v1.c1 (HIV-1)
[19] = target: HIV-1 Env of pseudovirus 1054_07_TC4_1499 (HIV-1)
[20] = target: HIV-1 Env pseudovirus Q259.d2.17 (HIV-1)
[21] = target: HIV-1 Env pseudovirus 1394C9G1(Rev-) (HIV-1)
[22] = target: HIV-1 Env pseudovirus HIV-16055-2.3 (HIV-1)
[23] = target: HIV-1 Env pseudovirus 1056_10_TA11_1826 (HIV-1)
[24] = target: HIV-1 Env pseudovirus ZM135M.PL10a (HIV-1)
[25] = target: HIV-1 Env pseudovirus Q461.e2 (HIV-1)
[26] = target: HIV-1 Env pseudovirus Ce1172_H1 (HIV-1)
[27] = target: HIV-1 Env pseudovirus 6535.3 (HIV-1)
[28] = target: HIV-1 Env pseudovirus CAP45.2.00.G3 (HIV-1)
[29] = target: HIV-1 Env pseudovirus Ce704809221_1B3 (HIV-1)

Substance: 10-1074 (antibody)
- IC50 [1]: < 0.001 µg/mL
- IC80 [1]: 0.005 µg/mL
- IC50 [2]: > 50 µg/mL
- IC80 [2]: > 50 µg/mL
- IC50 [3]: 0.267 µg/mL
- IC80 [3]: 0.968 µg/mL
- IC50 [4]: 0.099 µg/mL
- IC80 [4]: 0.16 µg/mL
- IC50 [5]: 0.045 µg/mL
- IC80 [5]: 0.166 µg/mL
- IC50 [6]: 0.052 µg/mL
- IC80 [6]: 0.123 µg/mL
- IC50 [7]: 0.044 µg/mL
- IC80 [7]: 0.261 µg/mL
- IC50 [8]: > 50 µg/mL
- IC80 [8]: > 50 µg/mL
- IC50 [9]: 0.014 µg/mL
- IC80 [9]: 0.026 µg/mL
- IC50 [10]: 0.363 µg/mL
- IC80 [10]: 1.2 µg/mL
- IC50 [11]: > 50 µg/mL
- IC80 [11]: > 50 µg/mL
- IC50 [12]: > 50 µg/mL
- IC80 [12]: > 50 µg/mL
- IC50 neutralization (TZM.bl) [13]: > 50 µg/mL
- IC80 neutralization (TZM.bl) [13]: > 50 µg/mL
- IC50 [14]: 0.174 µg/mL
- IC80 [14]: 2.37 µg/mL

Substance: 10E8 (antibody)
- IC50 [1]: 1.25 µg/mL
- IC80 [1]: 6.58 µg/mL
- IC50 [2]: 1.67 µg/mL
- IC80 [2]: 10 µg/mL
- IC50 [3]: 1.29 µg/mL
- IC80 [3]: 8.27 µg/mL
- IC50 [4]: > 10 µg/mL
- IC80 [4]: > 10 µg/mL
- IC50 [5]: 0.351 µg/mL
- IC80 [5]: 1.88 µg/mL
- IC50 [6]: 0.665 µg/mL
- IC80 [6]: 2.74 µg/mL
- IC50 [7]: 0.809 µg/mL
- IC80 [7]: 7.3 µg/mL
- IC50 [8]: 4.59 µg/mL
- IC80 [8]: > 10 µg/mL
- IC50 [9]: 0.081 µg/mL
- IC80 [9]: 1.32 µg/mL
- IC50 [10]: 1.56 µg/mL
- IC80 [10]: 9.84 µg/mL
- IC50 [11]: 1.84 µg/mL
- IC80 [11]: 8.61 µg/mL
- IC50 [12]: 1.27 µg/mL
- IC80 [12]: 9.05 µg/mL
- IC50 neutralization (TZM.bl) [13]: 1.92 µg/mL
- IC80 neutralization (TZM.bl) [13]: 8.26 µg/mL
- IC50 [14]: 1.96 µg/mL
- IC80 [14]: > 10 µg/mL

Substance: N49P7 (antibody)
- IC50 [15]: 0.041 µg/mL
- IC80 [15]: 0.131 µg/mL
- MPI [15]: 100
- IC50 [16]: 0.057 µg/mL
- IC80 [16]: 0.199 µg/mL
- MPI [16]: 100
- IC50 [17]: 0.015 µg/mL
- IC80 [17]: 0.049 µg/mL
- MPI [17]: 100
- IC50 [18]: 0.16 µg/mL
- IC80 [18]: 0.55 µg/mL
- MPI [18]: 100
- IC50 [19]: 0.494 µg/mL
- IC80 [19]: 2.31 µg/mL
- MPI [19]: 100
- IC50 [13]: 0.06 µg/mL
- IC80 [13]: 0.34 µg/mL
- MPI [13]: 100

Substance: N49P7.1 (antibody)
- IC50 [15]: 0.026 µg/mL
- IC80 [15]: 0.099 µg/mL
- MPI [15]: 100
- IC50 [16]: 0.033 µg/mL
- IC80 [16]: 0.11 µg/mL
- MPI [16]: 100
- IC50 [17]: 0.022 µg/mL
- IC80 [17]: 0.088 µg/mL
- MPI [17]: 100
- IC50 [18]: 0.191 µg/mL
- IC80 [18]: 0.647 µg/mL
- MPI [18]: 100
- IC50 [19]: 0.627 µg/mL
- IC80 [19]: 2.98 µg/mL
- MPI [19]: 100
- IC50 [13]: 0.076 µg/mL
- IC80 [13]: 0.425 µg/mL
- MPI [13]: 100

Substance: N49P7.2 (antibody)
- IC50 [20]: 38.5 µg/mL
- IC80 [20]: > 50 µg/mL
- MPI [20]: 54
- IC50 [21]: > 50 µg/mL
- IC80 [21]: > 50 µg/mL
- MPI [21]: 20
- IC50 [22]: 0.204 µg/mL
- IC80 [22]: 0.721 µg/mL
- MPI [22]: 100
- IC50 [23]: 0.114 µg/mL
- IC80 [23]: 0.771 µg/mL
- MPI [23]: 100
- IC50 [24]: 0.596 µg/mL
- IC80 [24]: 2.8 µg/mL
- MPI [24]: 99
- IC50 [25]: 0.472 µg/mL
- IC80 [25]: 2.24 µg/mL
- MPI [25]: 100
- IC50 [26]: > 50 µg/mL
- IC80 [26]: > 50 µg/mL
- MPI [26]: 6
- IC50 [27]: 0.152 µg/mL
- IC80 [27]: 0.784 µg/mL
- MPI [27]: 100
- IC50 [28]: 0.162 µg/mL
- IC80 [28]: 2.49 µg/mL
- MPI [28]: 95
- IC50 [29]: 0.874 µg/mL
- IC80 [29]: 3.88 µg/mL
- MPI [29]: 100

Substance: N49P9 (antibody)
- neutralization IC50 [18]: 0.137 µg/mL
- neutralization IC80 [18]: 0.502 µg/mL
- neutralization MPI [18]: 100
- neutralization IC50 [13]: 0.051 µg/mL
- neutralization IC80 [13]: 0.209 µg/mL
- neutralization MPI [13]: 100

Substance: N49P9.1 (antibody)
- neutralization IC50 [18]: 0.21 µg/mL
- neutralization IC80 [18]: 1.37 µg/mL
- neutralization MPI [18]: 100
- neutralization IC50 [13]: 0.085 µg/mL
- neutralization IC80 [13]: 0.227 µg/mL
- neutralization MPI [13]: 100

Substance: N49P11 (antibody)
- IC50 [20]: 8.42 µg/mL
- IC80 [20]: 21.4 µg/mL
- MPI [20]: 100
- IC50 [21]: 6.13 µg/mL
- IC80 [21]: 22.3 µg/mL
- MPI [21]: 100
- IC50 [22]: 0.091 µg/mL
- IC80 [22]: 0.503 µg/mL
- MPI [22]: 100
- IC50 [23]: 4.77 µg/mL
- IC80 [23]: 14.2 µg/mL
- MPI [23]: 100
- IC50 [24]: 3.97 µg/mL
- IC80 [24]: 16.6 µg/mL
- MPI [24]: 100
- IC50 [25]: 0.363 µg/mL
- IC80 [25]: 2.15 µg/mL
- MPI [25]: 100
- IC50 [26]: 3.55 µg/mL
- IC80 [26]: 19.2 µg/mL
- MPI [26]: 100
- IC50 [27]: 8.22 µg/mL
- IC80 [27]: 17.2 µg/mL
- MPI [27]: 100
- IC50 [28]: 5.25 µg/mL
- IC80 [28]: 24 µg/mL
- MPI [28]: 100
- IC50 [29]: 0.644 µg/mL
- IC80 [29]: 3.3 µg/mL
- MPI [29]: 100
